Data published in US20260274955A1 (JANUX THERAPEUTICS, published 2026).

What was measured:
[1] = target: T1, Anti-CD28 Fab (SEQ ID NOs: 202, 203); test: phage ELISA on captured biotinylated Fab;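 also: wells preblocked with or without CD28 antigen, then clonal phage supernatant added briefly, washed, and bound phage read out by ELISA using HRP-linked anti-M13 antibody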
T1 construct: biotinylated and captured on neutravidin coated plates in the phage ELISA
Method: (§1) Clonal phage were harvested as crude supernatants and screened via standard ELISAs. […] Prior to the addition of clonal phage, wells were incubated with blocking buffer and CD28 antigen or blocking buffer alone. Without washing or aspirating, clonal phage supernatants were then added to the wells and incubated for a short time. Wells were then washed followed by detection of bound phage using a horse radish conjugated anti-M13 antibody.

[2] = target: T2, anti-CD28 Fab (SEQ ID NOs: 202, 203); test: phage binding ELISA; biotinylated Fab on neutravidin plate;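 also: clonal phage supernatants added to Fab wells pretreated with CD28 antigen or with blocking buffer only, bound phage read out via HRP-linked anti-M13 antibody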
T2 construct: biotinylated and captured on neutravidin coated plates in the phage ELISA
T2 sequence (VH, as listed by the source, chain 1 of 2): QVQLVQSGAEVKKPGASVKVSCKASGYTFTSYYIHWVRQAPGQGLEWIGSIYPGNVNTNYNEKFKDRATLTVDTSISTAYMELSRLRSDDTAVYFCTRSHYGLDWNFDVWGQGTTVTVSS
T2 sequence (VL, as listed by the source, chain 2 of 2): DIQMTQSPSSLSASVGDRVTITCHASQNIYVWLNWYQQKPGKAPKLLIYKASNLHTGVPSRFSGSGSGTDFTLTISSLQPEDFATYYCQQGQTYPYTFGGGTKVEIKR
Method: as §1

T1 sequence (VH, as listed by the source, chain 1 of 2): as the sequence (VH, as listed by the source, chain 1 of 2) above
T1 sequence (VL, as listed by the source, chain 2 of 2): as the sequence (VL, as listed by the source, chain 2 of 2) above

Binder	Anti-CD28 Fab signal [1]	Anti-CD28 Fab (SEQ ID NOs: 202, 203) signal [2]
YCEGHSLEYMGKCL [Phage-253]	2.02	–
YCDGHSNEYMAKCL [Phage-175]	2.16	–
YCDGHSLEYMAKCL [Phage-180]	2.15	–
YCEGHSPMYMQKCM [Phage-355]	–	1.83
YCEGHRPEYMQKCL [Phage-249]	2.03	–
YCEGHLSQYMEKCL [Phage-281]	1.95	–
YCDGHMGVYYWKCL [Phage-255]	2.01	–
YCAGHSPEYMTKCL [Phage-171]	2.17	–
YCEGHSPEYMTKCL [Phage-251]	2.02	–
YCEGHAAEYMWKCL [Phage-353]	–	1.83
YCEGHAQEYMSKCL [Phage-439]	–	1.7
YCDGHMPEYMWKCL [Phage-170]	2.17	–
YCDGHAPEYMEKCL [Phage-254]	2.01	–
YCEGHLPVYMWKCL [Phage-169]	2.17	–
YCDGHLKEYQEKCL [Phage-299]	1.91	–
YCDGHSHEYMEKCL [Phage-257]	2.01	–
YCAGHSVEYMAKCL [Phage-275]	1.96	–
YCEGHAPQYIAKCL [Phage-246]	2.03	–
YCDGHEPQYLEKCL [Phage-308]	–	1.9
YCDGHVAEYMAKCL [Phage-177]	2.16	–
YCDGHAPEYMKKCL [Phage-306]	–	1.9
YCDGHSAEYMWKCL [Phage-179]	2.15	–
YCDGHSSEYMIKCL [Phage-277]	1.95	–

Binder	Anti-CD28 Fab signal [1]	Anti-CD28 Fab (SEQ ID NOs: 202, 203) signal [2]
YCDGHSAEYMQKCL [Phage-279]	1.95	–
YCDGHSALYMWKCL [Phage-276]	1.96	–
YCEGHSAEYMLKCL [Phage-401]	–	1.75
YCSGHSAEYMLKCL [Phage-411]	–	1.73
YCAGHLEEYMDKCL [Phage-311]	–	1.9
YCDGHAEEYMSKCL [Phage-309]	–	1.9
YCQGHLPEYMSKCL [Phage-258]	2.01	–
YCEGHLPEYMQKCL [Phage-404]	–	1.75
YCSGHLPEYMQKCL [Phage-403]	–	1.75
YCSGHLPEYMGKCL [Phage-417]	–	1.73
YCEGHLPDYMQKCL [Phage-412]	–	1.73
YCDGHLPEYMWKCI [Phage-178]	2.15	–
YCDGHTQEYMAKCL [Phage-168]	2.17	–
YCEGHLPQYLQKCL [Phage-176]	2.16	–
YCAGHLEIYMNKCL [Phage-283]	1.94	–
YCEGHSIQYMAKCL [Phage-252]	2.02	–
YCDGHIPEYLAKCL [Phage-391]	–	1.76
YCDGHSPEYMNKCL [Phage-399]	–	1.75
YCAGHLPEYLDKCL [Phage-430]	–	1.71
YCDGHLPMYFAKCM [Phage-351]	–	1.83
YCDGHLPEYLGKCL [Phage-274]	1.96	–
YCDGHVEEYLYKCL [Phage-310]	–	1.9
YCDGHLVEYMSKCL [Phage-280]	1.95	–

Binder	Anti-CD28 Fab signal [1]	Anti-CD28 Fab (SEQ ID NOs: 202, 203) signal [2]
YCDGHLEQYRAKCL [Phage-273]	1.96	–
YCDGHLSEYMAKCL [Phage-424]	–	1.72
YCDGHASEYMAKCL [Phage-407]	–	1.75
YCAGHAPEYMQKCL [Phage-174]	2.16	–
YCAGHAPEYIQKCL [Phage-172]	2.17	–
YCAGHLPEYMMKCL [Phage-248]	2.03	–
YCAGHSSEYIWKCL [Phage-362]	–	1.82
YCAGHSAEYMAKCL [Phage-419]	–	1.73
YCAGHSMEYMAKCL [Phage-435]	–	1.71
YCAGHSAEYMWKCL [Phage-433]	–	1.71
YCDGHSPEHIRKCL [Phage-282]	1.94	–
YCDGHVAEYRDKCL [Phage-173]	2.17	–
YCEGHSAEYIFKCL [Phage-354]	–	1.83
YCDGHLIEYMYKCL [Phage-278]	1.95	–
YCDGHSKEYMHKCL [Phage-307]	–	1.9
YCDGHEAQYMSKCL [Phage-256]	2.01	–
YCEGHLPIYLSKCL [Phage-285]	1.94	–
YCEGHAREHMAKCL [Phage-250]	2.02	–
YCEGHLSEYMAKCL [Phage-284]	1.94	–
YCDGHSQEYMWKCL [Phage-305]	–	1.9
YCDGHSQEYMLKCL [Phage-392]	–	1.76
YCDGHSPMYIGKCL [Phage-247]	2.03	–
YCDGHSSEYIVKCL [Phage-352]	–	1.83
